We go through 8 molecules from patent US20230256092A1 (SHIONOGI, published 2023).

The target in experiment [1] is T1, human CCR8 (human, UniProt P51685 1-355). Briefly: cell-based or functional assay.
For experiment [2], the target named is T2, loop3 hCCR4-hCCR8 (human, UniProt P51685 1-355).
T2 construct: chimera on Expi293 cells; hCCR8 264-280 replaced
Put plainly: FCM, Expi293 transfectants; blank cell = same binding activity as wild-type hCCR8.

In experiment [3] the target is T1, human CCR8. Briefly: cell-based or functional assay. This is another data set of the same source.
Experiment [4] has as its target T3, N-ter hCCR4-hCCR8 (human).
T3 construct: chimera on Expi293 cells; also called human CCR8 with the N-terminal region substituted with that of human CCR4
T3 chain: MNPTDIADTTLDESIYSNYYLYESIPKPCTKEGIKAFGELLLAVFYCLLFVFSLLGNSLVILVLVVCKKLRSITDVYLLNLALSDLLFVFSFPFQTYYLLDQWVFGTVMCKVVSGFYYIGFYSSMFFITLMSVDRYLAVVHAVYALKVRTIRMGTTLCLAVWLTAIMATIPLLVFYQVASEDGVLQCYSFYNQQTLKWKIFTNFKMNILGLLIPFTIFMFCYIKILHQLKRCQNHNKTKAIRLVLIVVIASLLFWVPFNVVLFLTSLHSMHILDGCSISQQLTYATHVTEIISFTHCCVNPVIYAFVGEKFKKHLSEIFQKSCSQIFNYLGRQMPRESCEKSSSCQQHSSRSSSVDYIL
Briefly: flow cytometry on Expi293 transfectants. On the technique in general: In flow cytometry, cells or beads pass a laser one at a time.

In experiment [5] the target is T4, hCCR8 (Y17A) (human, UniProt P51685 1-355).
T4 construct: also called mutant in which Y at position 17 of human CCR8 is substituted for A
Briefly: flow cytometry on Expi293 transfectants.

The target of experiment [6] is T5, mouse CCR8 (mouse, UniProt P56484 1-353).
T5 construct: full length, on Expi293 cells; also called mCCR8
T5 sequence: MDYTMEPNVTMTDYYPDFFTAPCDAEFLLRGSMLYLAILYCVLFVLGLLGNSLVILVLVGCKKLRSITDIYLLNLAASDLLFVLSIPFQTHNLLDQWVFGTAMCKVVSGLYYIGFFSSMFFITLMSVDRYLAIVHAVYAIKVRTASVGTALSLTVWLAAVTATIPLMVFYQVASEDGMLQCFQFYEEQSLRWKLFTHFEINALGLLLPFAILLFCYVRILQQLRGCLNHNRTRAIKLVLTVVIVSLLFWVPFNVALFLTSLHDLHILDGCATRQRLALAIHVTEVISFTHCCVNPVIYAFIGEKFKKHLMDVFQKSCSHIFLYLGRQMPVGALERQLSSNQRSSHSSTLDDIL
Briefly: flow cytometry on Expi293 transfectants.

Experiment [7] concerns the target T6, human CCR4 (human, UniProt P51679 1-360).
T6 construct: full length, on Expi293 cells; also called hCCR4
T6 sequence: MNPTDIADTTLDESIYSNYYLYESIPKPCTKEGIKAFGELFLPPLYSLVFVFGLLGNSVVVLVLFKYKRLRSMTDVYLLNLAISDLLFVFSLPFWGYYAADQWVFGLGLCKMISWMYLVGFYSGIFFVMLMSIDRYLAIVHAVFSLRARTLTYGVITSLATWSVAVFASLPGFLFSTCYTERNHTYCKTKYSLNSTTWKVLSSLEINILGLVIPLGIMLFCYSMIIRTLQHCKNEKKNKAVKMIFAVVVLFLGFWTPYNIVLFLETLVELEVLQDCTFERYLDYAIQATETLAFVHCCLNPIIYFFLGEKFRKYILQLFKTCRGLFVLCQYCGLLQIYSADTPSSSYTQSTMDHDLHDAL
Briefly: flow cytometry on Expi293 transfectants.

In experiment [8] the target is T7, loop2 hCCR4-hCCR8 (human, UniProt P51685 1-355).
T7 construct: chimera on Expi293 cells; hCCR8 172-202 replaced; also called loop2-human CCR4-substituted human CCR8
Put plainly: FCM, Expi293 transfectants; Δ = significantly reduced binding activity vs wild-type hCCR8.

The target in experiment [9] is T8, loop1 hCCR4-hCCR8 (human, UniProt P51685 1-355).
T8 construct: chimera on Expi293 cells; hCCR8 94-107 replaced; also called loop1-human CCR4-substituted human CCR8
The experiment is described as above.

Experiment [10] concerns the target T8, loop1 hCCR4-hCCR8. Briefly: flow cytometry on Expi293 transfectants.
Experiment [11] has as its target T1, human CCR8. Put plainly: cell-based or functional assay. This is another data set of the same source.
Experiment [12] concerns the target hCCR8 (K35A) (human, UniProt P51685 1-355). Briefly: flow cytometry on Expi293 transfectants.
Experiment [13] concerns the target T1, human CCR8. Briefly: cell-based or functional assay. The source holds these as a separate data set.
In experiment [14] the target is T1, human CCR8. Put plainly: cell-based or functional assay. The source holds these as a separate data set.
For experiment [15], the target named is T1, human CCR8. Briefly: cell-based or functional assay. The source holds these as a separate data set.

Positions count from the first letter of the chain named. Names and notes keep the numbering of the source. Read-outs that look alike come from different tables or passages of the source.

B1: h19D7 (IGKV2-18/IGHV3-73) (antibody, V domains shown)
VH: EVQLVESGGGLVQPGGSLKLSCAASGFTFSTYAMYWVRQASGKGLEWVGRIRSKSNNYATYYADSVKDRFTISRDDSKNTAYLQMNSLKTEDTAVYYCTRGGYGNYRYAMDYWGQGTTVTVSS
VL: DIVMTQTPPSLPVNPGEPASISCRSSKSLLHSNGNTYLYWYLQKPGQSPQLLIYRVSNLASGVPDRFSGSGSGSDFTLKISWVEAEDVGVYYCMQHLEYPFTFGQGTKLEIK
On to B1, for which the “IC50 (nM), Ca2+ influx by 200 nM hCCL1” value in [1] was 0.46 nM.

B2: 27G1 (antibody, V domains shown)
VH: EVQLVESGGRLVQPKGSLKLSCAASGFAFNTYAMYWIRQAPGKGLEWVARIRSKSNNYATYYADSVKDRFTISRDDSQSMLYLQMNNLKTEDTAMYYCVRARFYYSDYGYAMDYWGQGTSVTVSS
VL: DIVMTQAAPSVPVTPGESVSISCRSSKSLLHSNGNTYLYWFLQRPGQSPQLLIYRMSNLASGVPDRFSGSGSGTAFTLRISRVEAEDVGVYYCMQHLEYPLTFGAGTKLELKR
notes: mouse hybridoma antibody, purified
As to B2, the binding result is recorded as “binds” in [2]; “no binding” in experiment [4]; “no binding” in experiment [5]; “no binding” in experiment [6]; “no binding” in experiment [7]; “binds” in experiment [8]. In [9], the binding result was “binds”. The “Neutralizing activity IC50 (nM), Ca2+ influx by 100 nM hCCL1” value (from here on “Neutralizing activity IC50 (nM)”) in experiment [3] was found to be 0.09 nM.

B3: 8F7 (antibody, V domains shown)
VH: EVQLVESGGRLVQPKRSLKLSCAASGFTFNPYAMYWIRQAPGQGLEWVARIRSKSNNYATYYADSVKDRFTISRDDSQSMLYLQMNNLKTEDTAMYYCVRGHQGTMDYWGQGTSVTVSS
VL: B2 VL with I53T, L101F, A105G, L111I
notes: as for B2
As for B3, the binding result is “binds” in [2]; “no binding” in experiment [4]; “no binding” in [5]; “no binding” in [6]; “no binding” in experiment [7]; “no binding” in experiment [10]. The binding result in experiment [8] is “binds”. Further, in experiment [3], the “Neutralizing activity IC50 (nM)” value is 1.56 nM. Also, the “IC50 (nM), Ca2+ influx by 200 nM hCCL1” value in experiment [11] is 3.03 nM.

B4: 1H4 (antibody, V domains shown)
VH: B2 VH with A28T
VL: B2 VL with G69A
notes: as for B2
Regarding B4, the binding result in experiment [2] is given as “binds”; in experiment [4] it was “no binding”; in experiment [5], “no binding”; in experiment [6] it was “no binding”; in experiment [12] it was “no binding”; in experiment [7] it was “no binding”. Moreover, the binding result in experiment [8] and in experiment [9] was “binds” in each case. In experiment [3], the “Neutralizing activity IC50 (nM)” value worked out at 0.32 nM. In experiment [11], the “IC50 (nM), Ca2+ influx by 200 nM hCCL1” value is 0.36 nM.

B5: 10A11 (antibody, V domains shown)
VH: B2 VH with M34L
VL: B2 VL
notes: mouse hybridoma antibody, purified; also called m10A11
As to B5, the binding result was “binds” in experiment [2]; “no binding” in experiment [4]; “no binding” in experiment [5]; “no binding” in experiment [6]; “no binding” in experiment [7]; “binds” in experiment [8]. In addition, in [9], the binding result is “binds”. For the same molecule, in experiment [3], the “Neutralizing activity IC50 (nM)” value worked out at 0.08 nM. The “IC50 (nM), Ca2+ influx by 200 nM hCCL1” value in [13] and in experiment [11] was 0.23 nM in each case.

B6: 2C7 (antibody, V domains shown)
VH: QVQLKQSGPSLVQPSQSLSITCTVSGFSLTAYGVHWIRQSPGKGQEWLGVIWRGGSTDYNAAFMSRLTITKDNSKSQVFFKMNSLQADDTAIYYCAKKGGSYAMDYWGQGTSVTVSS
VL: DVVLTQTPLSLPVSLGGQASISCRSSQSLVHSNGNTYLHWYLQKPGQSPKLLIYKVSNRFSGVPDRFSGSGSGTDFTLKISRVEAEDLGVYFCSQSTQVPLTFGAGTKLELKR
notes: as for B2
On to B6, for which the binding result in experiment [2] is listed as “binds”; in [4], “no binding”; in [5], “no binding”; in experiment [6], “no binding”; in [7] it was “no binding”; in experiment [10], “no binding”. In addition, the binding result in experiment [8] was “binds”. Moreover, the “Neutralizing activity IC50 (nM)” value in experiment [3] was determined as 0.4 nM. Besides, the “IC50 (nM), Ca2+ influx by 200 nM hCCL1” value in experiment [11] was 1.19 nM.

B7: h10A11 (IGKV4-1/IGHV3-15 T94R) (antibody, V domains shown)
VH: EVQLVESGGALVKPGGSLRLSCAASGFTFSTYALYWVRQAPGKGLEWVGRIRSKSNNYATYYADSVKDRFTISRDDSKNTLYLQMNSLKTEDTAVYYCTRARFYYSDYGYAMDYWGQGTLVTVSS
VL: DIVMTQSPDSLAVSLGERATINCRSSKSLLHSNGNTYLYWYQQKPGQPPKLLIYRMSNLASGVPDRFSGSGSGTDFTLTISSLQAEDVAVYYCMQHLEYPLTFGQGTKLEIKR
As for B7, the “IC50 (nM), Ca2+ influx by 200 nM hCCL1” value in experiment [13] amounted to 0.15 nM. The “IC50 ratio (WT IC50/mutant IC50)” value in experiment [14] came out at 1 ratio.

B8: h10A11 (IGKV4-1/IGHV3-73) (antibody, V domains shown)
VH: B7 VH with A10G, K13Q, R19K, T28A, S30N, P41S, L81A
VL: B7 VL
For the molecule B8, in [13], the “IC50 (nM), Ca2+ influx by 200 nM hCCL1” value turned out to be 0.17 nM. For the same molecule, the “IC50 ratio (WT IC50/mutant IC50)” value in [15] came out at 1 ratio.
